B1: FBXO39 (parent)
chain: RVFKARIYTNRYETNEEDKTLQEI

Variants of: B1
Assay: protein stability index of a GFP-peptide fusion (GPS, HEK-293T) (PSI 1-6); higher = more stable
Details: c terminus: a fixed tail appended
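Note: lentivirally expressed fusions sorted by FACS into six bins by GFP to DsRed ratio, PSI derived from sequencing read proportions per bin multiplied by bin number.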

Protein stability index: each site, then its substitutions
T9: Q 2.73; V 2.32; K 3.08; G 2.49; D 3.38; P 3.15; F 1.82; M 3.24; A 3.18; W 1.92; E 3.24; I 2.21; Y 2.16; R 3.04; N 2.87; S 2.18
R11: S 3.38; Q 3.2; M 2.93; C 2.05; W 2.19; T 3.75; G 3.36; A 2.01; L 2.59; N 2.53; Y 2.5; E 3.57; V 2.18; P 3.36
N15: V 2.12; C 1.86; M 3.15; L 2.27; W 2.61; A 2.92; D 2.86; I 2.9; E 2.96; H 3.27; S 3.14; T 3; F 1.99; Y 2.06; K 2.28; Q 2.55
Y12: T 3.29; E 3.58; I 3.29; D 3.89; N 3.13; W 2.34; C 2.07; L 2.1; A 3.15; K 2.99; F 3.33; H 2.79; M 2.13; Q 3.88
K19: G 3.62; L 2.44; A 2.15; N 2.83; Y 2.57; E 3.84; P 2.91; W 2.54; S 3.39; Q 3.23; C 3.04; I 2.58; T 2.79
V2: M 3.98; C 2.87; I 2.51; Q 3.37; R 4.24; P 4.56; E 4.36; G 3.69; S 4.22; N 4.09; H 3.85; W 2.45; T 2.89; L 3.19; F 3.18
I24: H 3.7; V 3.44; F 2.55; Y 3.17; P 3.21; N 2.64; Q 3.32; C 2.61; K 2.98; E 3.48; M 2.25; R 3.22
R6: N 3.72; H 2.83; F 1.41; P 4.08; V 2.21; M 1.99; K 3.01; Y 2.62; T 3.79; E 4.25; D 4.04; A 3.66; C 2.77; W 1.92; G 3.7; S 3.37
T20: Q 2.78; C 2.55; I 1.76; K 2.53; V 3.47; L 2.38; S 3.2; M 3.06; Y 2.17; P 2.73; E 2.53; D 3.48
F3: W 2.65; Q 4.59; Y 2.59; D 5.46; S 4.54; N 4.76; T 4.88; R 4.71; A 4.19; P 4.55; G 4.12; H 4.63; M 4.41; I 4.61; V 4.15
Y8: W 2.16; G 3.46; A 3.84; D 4.51; Q 2.77; K 3.22; I 2.73; S 3.13; T 2.93; R 3.15; M 2.77; C 3.78; N 3.97
E13: L 3.1; K 2.4; Q 2.98; T 2.15; N 2; A 3.08; R 2.79; M 2.6; H 1.85; S 2.81; G 2.81
T14: G 2.29; M 3.75; W 1.66; Y 2.67; S 3.12; C 2; D 3.34; V 2.06; A 1.65; K 2.5; L 3.06; I 2.28; P 3.2; Q 2.62; R 2.36; H 2.5
R1: A 2.84; Y 2.14; S 2.72; D 3.95; K 2.6; L 2.74; G 3.42; M 3.34; C 1.7; F 1.66; W 2.08; Q 3.74
L21: N 3.26; C 2.21; Y 1.99; G 3.2; S 2.93; V 2.86; E 3.38; Q 3.18; W 2.5; D 3.88; P 3.27; A 2.9; H 3.76; M 3.24
E17: N 1.98; H 2.02; W 2.27; Q 2.33; D 3.12; L 2.41; F 1.63; T 2.83; R 2.43; I 1.59; M 1.89; S 2.1; P 2.41; Y 2.72; G 1.4
K4: Y 2.11; D 4.08; G 3.59; M 2.65; N 3.6; I 1.88; Q 4.48; R 3.12; L 1.99; P 4.27; F 2.03; V 2.16; S 3.6; C 2.83
I7: L 2.9; M 2.67; K 2.24; R 2.43; P 4.12; C 2.74; H 2.54; Y 2.39; S 3.39; Q 2.74; W 3.15; T 3; N 2.7; G 3.64
E16: A 2.2; G 2.33; H 2.58; F 1.45; R 2.33; S 2.6; Y 1.29; L 1.75; Q 2.08; C 2.38; W 2.27; T 2.28
D18: S 1.71; H 2.16; P 2.56; A 3.19; E 2.48; L 2.46; V 2.4; I 2.68; M 2.22; T 2.36; R 2.38; F 1.67; G 2.53
E23: G 2.19; W 1.74; Y 2.14; S 2.32; K 2.74; M 2.14; R 2.05; V 2.41; T 2.44; H 2.74; L 2.42; Q 2.21; D 2.58; N 2.15; C 2.13
A5: C 3.51; L 3.33; Q 2.7; K 2.69; N 3.95; I 2.2; E 4.48; M 3.02; W 2.34; G 3.1; V 1.67; D 4.39; R 3.49; H 3.04; Y 2.19
Q22: M 2.5; K 2.38; V 1.75; G 3.19; C 3.48; W 1.79; N 2.49; L 2.33; I 1.4; A 3.02; R 2.91; D 3; T 1.98
N10: R 2.6; E 3.31; F 1.93; P 2.21; T 2.45; D 2.61; C 2.29; Q 3.36; A 2.31; S 3.06; G 2.75; K 3.01; M 3.04; I 2.73
